Measurements from IntAct's records for PubMed 25502805.

B1: Actin nucleation-promoting factor WAS (Homo sapiens), P42768 (parent)
chain: MSGGPMGGRPGGRGAPAVQQNIPSTLLQDHENQRLFEMLGRKCLTLATAVVQLYLALPPGAEHWTKEHCGAVCFVKDNPQKSYFIRLYGLQAGRLLWEQELYSQLVYSTPTPFFHTFAGDDCQAGLNFADEDEAQAFRALVQEKIQKRNQRQSGDRRQLPPPPTPANEERRGGLPPLPLHPGGDQGGPPVGPLSLGLATVDIQNPDITSSRYRGLPAPGPSPADKKRSGKKKISKADIGAPSGFKHVSHVGWDPQNGFDVNNLDPDLRSLFSRAGISEAQLTDAETSKLIYDFIEDQGGLEAVRQEMRRQEPLPPPPPPSRGGNQLPRPPIVGGNKGRSGPLPPVPLGIAPPPPTPRGPPPPGRGGPPPPPPPATGRSGPLPPPPPGAGGPPMPPPPPPPPPPPSSGNGPAPPPLPPALVPAGGLAPGGGRGALLDQIRQGIQLNKTPGAPESSALQPPPQSSEGLVGALMHVMQKRSRAIHSSDEGEDQAGDEDEDDEWDD
B2: Peroxisomal biogenesis factor 3 (Homo sapiens), P56589 (parent)
chain: MLRSVWNFLKRHKKKCIFLGTVLGGVYILGKYGQKKIREIQEREAAEYIAQARRQYHFESNQRTCNMTVLSMLPTLREALMQQLNSESLTALLKNRPSNKLEIWEDLKIISFTRSTVAVYSTCMLVVLLRVQLNIIGGYIYLDNAAVGKNGTTILAPPDVQQQYLSSIQHLLGDGLTELITVIKQAVQKVLGSVSLKHSLSLLDLEQKLKEIRNLVEQHKSSSWINKDGSKPLLCHYMMPDEETPLAVQACGLSPRDITTIKLLNETRDMLESPDFSTVLNTCLNRGFSRLLDNMAEFFRPTEQDLQHGNSMNSLSSVSLPLAKIIPIVNGQIHSVCSETPSHFVQDLLTMEQVKDFAANVYEAFSTPQQLEK
partner: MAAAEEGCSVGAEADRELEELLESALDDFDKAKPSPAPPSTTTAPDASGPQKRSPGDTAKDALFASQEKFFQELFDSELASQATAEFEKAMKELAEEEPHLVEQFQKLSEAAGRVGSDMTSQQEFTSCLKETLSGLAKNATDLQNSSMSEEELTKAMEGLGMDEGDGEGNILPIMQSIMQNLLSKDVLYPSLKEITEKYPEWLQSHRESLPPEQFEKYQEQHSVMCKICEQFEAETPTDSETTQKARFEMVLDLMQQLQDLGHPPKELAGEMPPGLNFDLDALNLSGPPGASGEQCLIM
B3: Barrier-to-autointegration factor (Homo sapiens), O75531 (parent)
chain: MTTSQKHRDFVAEPMGEKPVGSLAGIGEVLGKKLEERGFDKAYVVLGQFLVLKKDEDLFREWLKDTCGANAKQSRDCFGCLREWCDAFL
partner: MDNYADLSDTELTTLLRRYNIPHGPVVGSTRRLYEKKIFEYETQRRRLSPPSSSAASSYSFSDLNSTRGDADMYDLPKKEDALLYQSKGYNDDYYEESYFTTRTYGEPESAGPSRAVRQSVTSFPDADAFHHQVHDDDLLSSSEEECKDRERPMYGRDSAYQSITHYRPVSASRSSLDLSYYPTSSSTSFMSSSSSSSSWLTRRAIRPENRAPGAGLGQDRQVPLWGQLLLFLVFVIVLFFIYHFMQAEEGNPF
B4: pre-mRNA splicing regulator USH1G (Homo sapiens), Q495M9 (parent)
chain: MNDQYHRAARDGYLELLKEATRKELNAPDEDGMTPTLWAAYHGNLESLRLIVSRGGDPDKCDIWGNTPLHLAASNGHLHCLSFLVSFGANIWCLDNDYHTPLDMAAMKGHMECVRYLDSIAAKQSSLNPKLVGKLKDKAFREAERRIRECAKLQRRHHERMERRYRRELAERSDTLSFSSLTSSTLSRRLQHLALGSHLPYSQATLHGTARGKTKMQKKLERRKQGGEGTFKVSEDGRKSARSLSGLQLGSDVMFVRQGTYANPKEWGRAPLRDMFLSDEDSVSRATLAAEPAHSEVSTDSGHDSLFTRPGLGTMVFRRNYLSSGLHGLGREDGGLDGVGAPRGRLQSSPSLDDDSLGSANSLQDRSCGEELPWDELDLGLDEDLEPETSPLETFLASLHMEDFAALLRQEKIDLEALMLCSDLDLRSISVPLGPRKKILGAVRRRRQAMERPPALEDTEL
partner: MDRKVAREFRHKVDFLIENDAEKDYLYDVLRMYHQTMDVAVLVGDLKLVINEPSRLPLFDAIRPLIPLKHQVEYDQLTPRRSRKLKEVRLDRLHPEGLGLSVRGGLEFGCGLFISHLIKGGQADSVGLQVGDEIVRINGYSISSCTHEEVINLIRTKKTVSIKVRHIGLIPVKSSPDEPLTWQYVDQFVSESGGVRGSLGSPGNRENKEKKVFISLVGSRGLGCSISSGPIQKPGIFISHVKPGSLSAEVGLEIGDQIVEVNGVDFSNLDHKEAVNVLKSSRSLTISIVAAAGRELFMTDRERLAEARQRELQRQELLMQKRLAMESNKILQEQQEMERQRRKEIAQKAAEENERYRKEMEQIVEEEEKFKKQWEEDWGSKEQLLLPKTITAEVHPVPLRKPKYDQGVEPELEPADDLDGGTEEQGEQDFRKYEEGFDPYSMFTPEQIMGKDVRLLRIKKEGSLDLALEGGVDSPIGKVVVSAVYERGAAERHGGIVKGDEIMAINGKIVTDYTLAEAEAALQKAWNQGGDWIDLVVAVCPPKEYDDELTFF
B5: ADP-ribosylation factor-like protein 2-binding protein (Homo sapiens), Q9Y2Y0 (parent)
chain: MDALEGESFALSFSSASDAEFDAVVGYLEDIIMDDEFQLLQRNFMDKYYLEFEDTEENKLIYTPIFNEYISLVEKYIEEQLLQRIPEFNMAAFTTTLQHHKDEVAGDIFDMLLTFTDFLAFKEMFLDYRAEKEGRGLDLSSGLVVTSLCKSSSLPASQNNLRH
B6: Scaffold protein ILK (Homo sapiens), Q13418 (parent)
chain: MDDIFTQCREGNAVAVRLWLDNTENDLNQGDDHGFSPLHWACREGRSAVVEMLIMRGARINVMNRGDDTPLHLAASHGHRDIVQKLLQYKADINAVNEHGNVPLHYACFWGQDQVAEDLVANGALVSICNKYGEMPVDKAKAPLRELLRERAEKMGQNLNRIPYKDTFWKGTTRTRPRNGTLNKHSGIDFKQLNFLTKLNENHSGELWKGRWQGNDIVVKVLKVRDWSTRKSRDFNEECPRLRIFSHPNVLPVLGACQSPPAPHPTLITHWMPYGSLYNVLHEGTNFVVDQSQAVKFALDMARGMAFLHTLEPLIPRHALNSRSVMIDEDMTARISMADVKFSFQCPGRMYAPAWVAPEALQKKPEDTNRRSADMWSFAVLLWELVTREVPFADLSNMEIGMKVALEGLRPTIPPGISPHVCKLMKICMNEDPAKRPKFDMIVPILEKMQDK
partner: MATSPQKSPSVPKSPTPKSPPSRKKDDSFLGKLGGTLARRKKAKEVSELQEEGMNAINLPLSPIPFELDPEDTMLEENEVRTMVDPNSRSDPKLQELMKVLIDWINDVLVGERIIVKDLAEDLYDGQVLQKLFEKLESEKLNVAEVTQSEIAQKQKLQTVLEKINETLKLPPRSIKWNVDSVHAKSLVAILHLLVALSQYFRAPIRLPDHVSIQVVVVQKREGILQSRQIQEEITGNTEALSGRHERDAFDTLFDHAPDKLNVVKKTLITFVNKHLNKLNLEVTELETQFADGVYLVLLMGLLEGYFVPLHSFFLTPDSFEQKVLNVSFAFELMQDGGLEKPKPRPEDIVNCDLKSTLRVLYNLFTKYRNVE

Variants of: B1
Conditions: with cdc42_human CDC42, P60953
Sequence of cdc42_human CDC42, P60953 (P60953 whole entry, looked up): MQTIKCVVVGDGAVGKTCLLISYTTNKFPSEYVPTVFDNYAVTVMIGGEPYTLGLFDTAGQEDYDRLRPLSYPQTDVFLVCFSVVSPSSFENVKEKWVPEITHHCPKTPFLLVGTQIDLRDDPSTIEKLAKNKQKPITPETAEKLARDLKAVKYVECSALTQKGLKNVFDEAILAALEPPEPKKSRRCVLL

| effect of a mutation on the interaction | Variant |
| --- | --- |
| disrupting interaction strength | MSGGPMGGRPGGRGAPAVQQNIPSTLLQDHENQRLFEMLGRKCLTLATAVVQLYLALPPGAEHWTKEHCGAVCFVKDNPQKSYFIRLYGLQAGRLLWEQELYSQLVYSTPTPFFHTFAGDDCQAGLNFADEDEAQAFRALVQEKIQKRNQRQSGDRRQLPPPPTPANEERRGGLPPLPLHPGGDQGGPPVGPLSLGLATVDIQNPDITSSRYRGLPAPGPSPADKKRSGKKKISKADIGAPSGFKHVSHVGWDPQNGFDVNNLDPDLRSLFSRAGISEAQLTDAETSKLIYDFTEDQGGLEAVRQEMRRQEPLPPPPPPSRGGNQLPRPPIVGGNKGRSGPLPPVPLGIAPPPPTPRGPPPPGRGGPPPPPPPATGRSGPLPPPPPGAGGPPMPPPPPPPPPPPSSGNGPAPPPLPPALVPAGGLAPGGGRGALLDQIRQGIQLNKTPGAPESSALQPPPQSSEGLVGALMHVMQKRSRAIHSSDEGEDQAGDEDEDDEWDD [I294T] |

Variants of: B2
Conditions: with pex19_human PEX19, P40855

| effect of a mutation on the interaction | Variant |
| --- | --- |
| with no effect | MLRSVWNFLKRHKKKCIFLGTVLGGVYILGKYGQKKIREIQEREAAEYIAQARRQYHFESNQRTCNMTVLSMLPTLREALMQQLNSESLTALLKNRPSNKLEIWEDLKIISFTRSTVAVYSTCMLVVLLRVQLNIIGGYIYLDNAAVGKNGTTILAPPDVQQQYLSSIQHLLGDGLTELITVIKQAVQKVLGSVSLKHSLSLLDLEQKLKEIRNLVEQHKSSSWINKDGSKPLLCHYMMPDEETPLAVQACGLSPRDITTIKLLNETRDMLESPDFSTVLNTCLNRGFSRLLDNMAEFFRPTEQDLQHGNSMNSLSSVSLPLAKIIPIVNGQIHSVCSETPSHFVQYLLTMEQVKDFAANVYEAFSTPQQLEK [D347Y] |

Variants of: B3
Conditions: with emd_human EMD

| effect of a mutation on the interaction | Variant |
| --- | --- |
| with no effect | MTTSQKHRDFVTEPMGEKPVGSLAGIGEVLGKKLEERGFDKAYVVLGQFLVLKKDEDLFREWLKDTCGANAKQSRDCFGCLREWCDAFL [A12T] |

Variants of: B4
Conditions: with ush1c_human USH1C

| effect of a mutation on the interaction | Variant |
| --- | --- |
| with no effect | MNDQYHRAARDGYLEVLKEATRKELNAPDEDGMTPTLWAAYHGNLESLRLIVSRGGDPDKCDIWGNTPLHLAASNGHLHCLSFLVSFGANIWCLDNDYHTPLDMAAMKGHMECVRYLDSIAAKQSSLNPKLVGKLKDKAFREAERRIRECAKLQRRHHERMERRYRRELAERSDTLSFSSLTSSTLSRRLQHLALGSHLPYSQATLHGTARGKTKMQKKLERRKQGGEGTFKVSEDGRKSARSLSGLQLGSDVMFVRQGTYANPKEWGRAPLRDMFLSDEDSVSRATLAAEPAHSEVSTDSGHDSLFTRPGLGTMVFRRNYLSSGLHGLGREDGGLDGVGAPRGRLQSSPSLDDDSLGSANSLQDRSCGEELPWDELDLGLDEDLEPETSPLETFLASLHMEDFAALLRQEKIDLEALMLCSDLDLRSISVPLGPRKKILGAVRRRRQAMERPPALEDTEL [L16V] |
| with no effect | MNDQYHRAARDGYLELLKEATRKELNAPDEDGMTPTLWAAYHGNLESPRLIVSRGGDPDKCDIWGNTPLHLAASNGHLHCLSFLVSFGANIWCLDNDYHTPLDMAAMKGHMECVRYLDSIAAKQSSLNPKLVGKLKDKAFREAERRIRECAKLQRRHHERMERRYRRELAERSDTLSFSSLTSSTLSRRLQHLALGSHLPYSQATLHGTARGKTKMQKKLERRKQGGEGTFKVSEDGRKSARSLSGLQLGSDVMFVRQGTYANPKEWGRAPLRDMFLSDEDSVSRATLAAEPAHSEVSTDSGHDSLFTRPGLGTMVFRRNYLSSGLHGLGREDGGLDGVGAPRGRLQSSPSLDDDSLGSANSLQDRSCGEELPWDELDLGLDEDLEPETSPLETFLASLHMEDFAALLRQEKIDLEALMLCSDLDLRSISVPLGPRKKILGAVRRRRQAMERPPALEDTEL [L48P] |

Variants of: B5
Conditions: with arl2_human ARL2, P36404
Sequence of arl2_human ARL2, P36404 (P36404 whole entry): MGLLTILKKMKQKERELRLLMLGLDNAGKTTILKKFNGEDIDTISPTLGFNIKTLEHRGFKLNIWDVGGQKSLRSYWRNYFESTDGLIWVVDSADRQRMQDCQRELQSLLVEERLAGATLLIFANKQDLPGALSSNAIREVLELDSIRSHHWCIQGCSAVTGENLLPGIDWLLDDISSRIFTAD

| effect of a mutation on the interaction | Variant |
| --- | --- |
| disrupting interaction strength | MDALEGESFALSFSSASDAEFDAVVGYLEDIIMDDEFQLLQRNFRDKYYLEFEDTEENKLIYTPIFNEYISLVEKYIEEQLLQRIPEFNMAAFTTTLQHHKDEVAGDIFDMLLTFTDFLAFKEMFLDYRAEKEGRGLDLSSGLVVTSLCKSSSLPASQNNLRH [M45R] |

Variants of: B6
Conditions: with parva_human PARVA

| effect of a mutation on the interaction | Variant |
| --- | --- |
| with no effect | MDDIFTQCREGNAVAVRLWLDNTENDLNQGDDHGFSPLHWACREGRSAVVEMLIMRGARINVMNRGDDTPLHLAASHGHRDIVQKLLQYKADINAVNEHGNVPLHYACFWGQDQVAEDLVANGALVSICNKYGEMPVDKAKAPLRELLRERAEKMGQNLNRIPYKDTFWKGTTRTRPRNGTLNKHSGIDFKQLNFLTKLNENHSGELWKGRWQGNDIVVKVLKVRDWSTRKSRDFNEECPRLRIFSHPNVLPVLGACQSPPVPHPTLITHWMPYGSLYNVLHEGTNFVVDQSQAVKFALDMARGMAFLHTLEPLIPRHALNSRSVMIDEDMTARISMADVKFSFQCPGRMYAPAWVAPEALQKKPEDTNRRSADMWSFAVLLWELVTREVPFADLSNMEIGMKVALEGLRPTIPPGISPHVCKLMKICMNEDPAKRPKFDMIVPILEKMQDK [A262V] |
